# Assay: soluble on expression in E. coli; label from the status in PepcDB or PDB records
row,Sequence,soluble on expression in E. coli
1,MANSSRRTTAFSEAEKAAVYRALLTRRDIRHFRPDPIPEEVLERLYQAFHAAPSVGLTQPWAIVEIRERATKERVFALHQEARARERALFQGKAQRVYDRLRLEGLLEAPLHLAVFQRPVARSLGHHTMPETLAYSVVLAVGNLWTAARAEGIGVGWVSILEPEAVARLLGAPPDYRLLAYLCLGYPRAWPDEPLLERAGWRQREPLLRYRERFP,soluble
2,MAAKIEDMETRIEALMDVMRVPPGKKINLKKDYDPGFTGKWMTKAEAKETLARGIQMLAEMQDKLWAQNQYAVLMNLQALDAAGKDGTIKHVMSGVNPQGVDVHSFKGPSSEEMDHDYLWRNFKALPSRGRIGIFNRSYYEEVLVVRVHPEFLASQQLPPKLKDKRIWRRRFEEINNFEKYLVDNGIVVIKFFLYVSKEAQKERFLRRTQLPEKNWKFSAADIKERAHWDDYIAAYEDMFNHTSTEWAPWYIVPADHKWFTRLAVAAVLYYTMEKLNLAYPTVSEEQKQALIAAKEELEREDSGPKDKAVVKAEEEEDADPQDPASNGEVPKDESKKESKKKGSKNR,not soluble
3,MGSDKIHHHHHHMKCFFESEEFEKAVEKIDRLYEKVDSIEEAEIAFLREKKPFQGVAVVKEETYTIYKTGEKLVELEDPEKAASIAYILAGEKLLSGGWVRRMVSGLLQAMIVLMEIEDENGWSHSQRVARLAERVGKKLGLSEEKLSLLREYAMLHDVGKIGIEQLMLYTPTRIRIFEQYPQDHTIMGSVFLASLEVLWDVVPIVRHHHENWDGTGYPDGLKGEEIPLEARIISVCDYYDVLTNFVSSEWEGRTKTHEEALEIIKKEAGKKFDPKVVEAFLEIFSDEAVE,not soluble
4,MEASDLTFTVSVDQTTKHVFDAICNVRGWWSEEIEGNTDKRNETFIYQYEDVHYAKIKVQELIPNEKVVWLVTYNYFKFTKDKSEWTGTTIRFDISAKGDKTEIRFTHYGLNPEFECYDICSNAWGQYIGQSLPDLIKSGKGNPNGKNKPTTADEERFSAKNLEHHHHHH,soluble
5,SKSKEPLLNGFFWNRTSIYYNCQVIIEVTEMLHNASLLIDDIEDSSKLRRGFPVAHSIYGIPSVINSANYVYFLGLEKVLMLEHPEAVRVFTRQLLELHRGQGLDIHWRDTYTCPSEAEYRAMVLQKTGGLFGLAVGLMQLFSDWKRDLKPLLDTLGLYFQIRDDYANLNSKQYSANKSFCEDLTEGKFSFPTIHAIWSHPESTQVQNILRRRTENLDIKRYCVDYLEKVGSFAYTRQTLLDLEVEAYRLIKELGGNPELEALVEHLSRMYKEPEGGATVSQSK,soluble
6,LEDFNVTSKVIELDVRKPTPEAAENLNIGMDEDIYYVKRVRYINGQTLCYEESYYTKSIVTYLNNEIVSHSIFHYIREGLGLKIGFSDLFLHVGQLNEEEAEYLGLEAGLPKLYIESIFHLTNGQPFDYSKISYNYEQSQ,not soluble
7,MGSDKIHHHHHHMTKMLRTYKFRIYPTREQEEKLAKHFGHTRFVYNFFLNYANIIYRVMERPTYYNEWASVLVKLKKTNKYSWLNEVNSQALQQSLKDLERAFKNFFKKQAGYPKFKKKKFSRQTFRIPQHIQLYIKEDNPKYGCIFVPKFKEGIKVRLHRKLPKDGKIKQATFIKTATNKYYAAIVFEVQDAEVQNTSTGILGIDLGIKDTITLSDGKKYKMPDLSKYERQIKRLHRRLSRKQRGSKNWEKARLCLAKLYEKIVNIKNDWLHKITHDLVSESQAGKIVVEDLNIKGMVQNHRLARHIHMQSWRRFLELLEYKAKRCGIEVIKANRYYPSSQMCSECGYINKEVKDLSVREWTCPVCGAHHDRDVNAAKNLVRYGLMLSIGREPSEFTPVDSALAAEPERGLRAITG,not soluble
8,MDVNQFTELITKLQSADNDIRKQAEEVYEKIEGPTKVAALFEAYTHHTNNSDARSTVLVFLRRVLARDWDAIWETLNEENKQRILAKVLEMIVHETELSIKKKIADLISEIASNLIDDSGDMTWGGVLELMDHCLKSEDLTGNYIALLILRGCPIIFGNRLAHFLPTLKVVLEKCMATPDLQIKATAVRAVIAFAVDNDEEKDVVRLMTSLVPNVLQVCNETSDEDDSDGPLGEFAELASSLPKCLNTHMSQVLQVTLAIAGNKEKNEMVRQNAIEVICSYMESAPKGLKKYAPGALGPILETLLSCMTEMDDDVLNEWLNEIEEEEDYEDIPIIAESAIDRVACCINGKVMLPVFLPLVEKLLTSEDWKMKHAALRAFSAVGEGCQRSMEPHIEQIMAHITNYVNDAHPRVQYAACNAIGQMSSDFAPTLQKKCHAAVIPALLESLDRTDVPRVCAHAASALVNFAEECPKSIIGQYLPFILQKLENVLSAVFNRLGDKRYQVVVENIVTAIASVAEAAEELFKEHHARLIPNLVHILQNVGELKELRGKTIECISLIGYAVGKEQFHATAIEILNLLGDGMKDLAIDDPQYSYMISSWTRFCSILGADFAPFLPVVMDPVLRAARYRPDFNIFNNEDVHENEEGVEYHGIGGEKTVGIRTSGLEEKATACDMLVAFAKEMKEAFMPYVVDVYELAIKNLDFGLHDGVRTASAEIMPCLLTCVEKQGLADKRRLWCEFLKALTTSMEEEDDVEILASFMTTIGSCIEVMKTEGIAEEEVQLIISVLLKQLENYGKRMSDRPVEDEDDDDAEAKEELDYFMELEASCLGAISDLTHSLMKEFKGTIFEGMINVFNCAIQLIEGSKQYFERQWGMCLLDDAIEFGVGHMPTRFPKLIPIMYKLLGDEYPEVRQAASYGFGVMAINYHQISDYRNEILSCLEPLAAMIQREDARATEESTVATENAISAFAKIIGNVPLPAEAYGKVVEMFLSWLPTYSDTEESPYIYTCLAELFDKQDAALFGPENQNLPRIFLVCLLSIANDAFNDDDSGNQTKQRIVTILKQIYASFPQFAQQDGIDEHLTSVLQQTLNGQ,not soluble
9,MLGKDYMLAIILVNCDDDLWGDHSLEVEAGLPPGWRKIHDAAGTYYWHVPSGSTQWQRPTWELGDAEDPGTGTEGIWGLRPPKGRSFSSLESSLDRSNSLSWYGGESYIQSMEPGAKCFAVRSLGWVEVPEEDLAPGKSSIAVNNCIQQLAQTRSRSQPPDGAWGEGQNMLMILKKDAMSLVNPLDHSLIHCQPLVHIRVWGVGSSKGRDRDFAFVASDKDSCMLKCHVFCCDVPAKAIASALHGLCAQILSERVEVSGDASCCSPDPISPEDLPRQVELLDAVSQAAQKYEALYMGTLPVTKAMGMDVLNEAIGTLTARGDRNAWVPTMLSVSDSLMTAHPIQAEASTEEEPLWQCPVRLVTFIGVGRDPHTFGLIADLGRQSFQCAAFWCQPHAGGLSEAVQAACMVQYQKCLVASAARGKAWGAQARARLRLKRTSSMDSPGGPLPLPLLKGGVGGAGATPRKRGVFSFLDAFRLKPSLLHMP,soluble
10,HVKLEQLGIPRQVLKYDDFLKSTQKSPATAPKPMPPRPPLPNQQFGVSLQHLQEKNPEQEPIPIVLRETVAYLQAHALTTEGIFRRSANTQVVREVQQKYNMGLPVDFDQYNELHLPAVILKTFLRELPEPLLTFDLYPHVVGFLNIDESQRVPATLQVLQTLPEENYQVLRFLTAFLVQISAHSDQNKMTNTNLAVVFGPNLLWAKDAAITLKAINPINTFTKFLLDHQGELFPSPDPSGL,soluble
11,MAENRNRKPSDSQVDAIKVPPHSLEAEQSVIGGLLLDNERWDTVAERVVASDFYSRPHRLIFEGVKTILESGKPLDLITLSEHLERHEQLEDVGGFAYLADLAKNTPSAANINAYADIVAERAIVRGLIGVANEIADAGYDPQGRSSEDLIDMAESKVFAIAESRTSENEGPQNVDNILEKTLERIELLYKTPQDGVTGVDTGFTDLNKKTAGLQGSDLVIVAARPSMGKTTFAMNLCENAAMQQDKPVLIFSLEMPAEQLMMRMLASLSRVDQTKIRTGQLDDEDWARISSTMGILMQKKNMYIDDSSGLTPTEVRSRARRVAREHGGLSMIMVDYLQLMRVPSLTDNRTLEIAEISRSLKALAKELNVPVVALSQLNRSLEQRADKRPVNSDLRESGSIEQDADLIMFIYRDEVYHPDSPYKGTAEIIIGKQRNGPIGSVRLTFQGQHSRFDNYAGPAFDIDDE,not soluble
12,SLHPDTILHNGRVTTLDRGNPNATAVAIKDGLFVEVGSDAEVMALAGSETKIIDLKGKRVLPGLIDNHTHVIRGGLNFNMELRWDGVRSLADAMYMLKRQVAITPAPQWVRVVGGFTEHQFVEKRLPTIEEINAVAPDTPVFLLHLYDRALLNGAALRAVGYTKDTPNPPGGEITRDANGNPTGLLLAKPNAGILYSTLAKGPKLPLDYQVNSTRHFMRELNRLGVTGVIDAGGGFQNYPDDYEVIQKLSDENQMTVRLAYNLFTQKPKQEKEDFLNWTSSVKYKQGNDYFRHNGAGEMLVFSAADFEDFRQPRPDMPPEMEGELEDVVRILAENRWPWRLHATYDETISRALDVFEKVNRDIPLEGLNWFFDHAETISDRSIDRIAALGGGIATQHRMAYQGEYFVERYGQGVAEATPPIARMLEKGVNVSAGTDATRVASYNPWVSLFWMVTGKTVGGMQLYPRANCLDRETALRMWTEKVTWFSNEEGKKGRIEKGQFADLVVPDKDYFSCAEDEISFLTSELTMVGGKIVYGAGDFRVLDESNIPPAMPDWSPVRTFGGYAAWGEPQGAGKNSLRRAAITSCGCASDCGVHGHDHAGAWTSKLPIADLKGFFGALGCSCWAV,soluble
13,MAPPVLKNEDSDLAVREPAAKKSKKSNGKAQAVKSESSESMFMTEATTDENIYPDATFQSYEEFDQKFNVWKAKNLHPFRVASSESLRTEDGSISEKFKYRYVVFHCARYGVPRMRGEGKRPNQNYLPCSCTAMIRLNFQFHEQCLRLTSLETRHSNHTICKDLYEKMCVKEEKRKHVTPRRTMSGPKSRSSSVATAGNADTSLISDRSINVKKEPSEERADSEHSHGQSPVDLHYEVTRPYEVSPSAPISEITTPFVLPTQKVGLNDLVPTSQFSPMDYQSLQNQIILNQVKLNAMTNNVYNPFGNWPASSLVPTPAPPFLTPTPSQVSPALSSSVDENEAPKIFHSLEAVRPIPLRPSQNSAFYQMLNSSSTSPIIAVTKAEVDSVLGAASRLLNDNHLPEDVLHSRVKQLNGLISQWTHS,not soluble
14,SLERYIDGRAVKADIFDHPVSYNINEITHTDDVHEALTASLNKYGNVDMAYMESLTDKSQSDLLEELRGRIFYNPLSKNYEIADRFISGNVMAKAEHIEEYLQSHPDNGEARISLEALRQSLPAPIPFEDLDFNFGERWIPAGVYSRYASWLFDTDVSVRYTASSDEYSIRADMTSPRIMNQYSVRSESRIFNGIALMRHAIHNTTPNITKTVLDKTGKEMKIRDPEVTLLANSKIDEIRNGFSDWLMEQSPEFKRKMADMYNRKFNCFVRPKYDGSHQSFPGLDLKGLGIPDLYPSQ,not soluble
15,MGSDKIHHHHHHMMRVFHLVLAPRLSGAEVLAKDLALDQCAEGMAVCVASLLPAHAEFAPLQDDLQRHGVQCVFPRRRHRALVKLCHLFGAVRRFRPDVIFAHATIPSFYARALPLRVPVVYVMHSATNDFERPLFRRIEHILSGRARVVIGVSEQGVTDYVQAIGPHPSMTVVPNGVDLARFSFTDGVERDGRTPQVVQIGRYAAVKNQLATVRAFSEVLMKGKDARLVLYGVVEDPDYQRAVVALAKELGIAERVVVAGPRTDVATVLSESNVFVMPSQSEAHSVAFLEALASGVPIVASKIPAFAFANGFPGVQLIDTDNVQCYAEAVIAALGQERAQRSLTGLTLRDTADRYRAIARQVSLAVPAR,not soluble
16,MSSQVEHPAGGYKKLFETVEELSSPLTAHVTGRIPLWLTGSLLRCGPGLFEVGSEPFYHLFDGQALLHKFDFKEGHVTYHRRFIRTDAYVRAMTEKRIVITEFGTCAFPDPCKNIFSRFFSYFRGVEVTDNALVNIYPVGEDYYACTETNFITKVNPETLETIKQVDLCNYVSVNGATAHPHIENDGTVYNIGNCFGKNFSIAYNIVKIPPLQADKEDPISKSEIVVQFPCSDRFKPSYVHSFGLTPNYIVFVETPVKINLFKFLSSWSLWGANYMDCFESNETMGVWLHIADKKRKKYINNKYRTSPFNLFHHINTYEDHEFLIVDLCCWKGFEFVYNYSYLANLRENWEEVKKNARKAPQPEVRRYVLPLNIDKADTGKNLVTLPNTTATAILCSDETIWLEPEVLFSGPRQAFEFPQINYQKYGGKPYTYAYGLGLNHFVPDRLCKLNVKTKETWVWQEPDSYPSEPIFVSHPDALEEDDGVVLSVVVSPGAGQKPAYLLILNAKDLSEVARAEVEINIPVTFHGLFKKS,soluble

# Reference: the DeepSol protein solubility set
